Assay results from PMC4270374 (Biochemistry, 2014).
Residue numbers refer to the chain shown, from its start. In names and notes the source's numbering stands.

B1: AfUGMY104A (UDP-galactopyranose mutase from Aspergillus fumigatus, Y104A on the K344A/K345A background) (enzyme)
chain: MTHPDISVDVLVIGAGPTGLGAAKRLNQIDGPSWMIVDSNETPGGLASTDVTPEGFLYDVGGHVIFSHYKYFDDCLDEALPKEDDWYTHQRISYVRCQGQWVPAPFQNNISMLPKEEQVKCIDGMIDAALEARVANTKPKTFDEWIVRMMGTGIADLFMRPYNFKVWAVPTTKMQCAWLGERVAAPNLKAVTTNVILGKTAGNWGPNATFRFPARGGTGGIWIAVANTLPKEKTRFGEKGKVTKVNANNKTVTLQDGTTIGYKKLVSTMAVDFLAEAMNDQELVGLTKQLFYSSTHVIGVGVRGSRPERIGDKCWLYFPEDNCPFYRATIFSNYSPYNQPEASAALPTMQLADGSRPQSTEAKEGPYWSIMLEVSESSMKPVNQETILADCIQGLVNTEMLKPTDEIVSTYHRRFDHGYPTPTLEREGALTQILPKLQDKDIWSRGRFGSWRYEVGNQDHSFMLGVEAVDNIVNGAVELTLNYPDFVNGRQNTERRLVDGAQVFAKSKAQ
B2: AfUGMQ107A (UDP-galactopyranose mutase from Aspergillus fumigatus, Q107A on the K344A/K345A background) (enzyme)
chain: B1 chain with A104Y, Q107A
B3: AfUGMY317A (UDP-galactopyranose mutase from Aspergillus fumigatus, Y317A on the K344A/K345A background) (enzyme)
chain: B1 chain with A104Y, Y317A
B4: AfUGMN207A (UDP-galactopyranose mutase from Aspergillus fumigatus, N207A on the K344A/K345A background) (enzyme)
chain: B1 chain with A104Y, N207A

Target: the molecule itself
Experiment: crystal structure

Protein | stoichiometry N
B1 | 4
B2 | 4
B3 | 4
B4 | 4
